# From the DeepSol protein solubility set
# Test: soluble on expression in E. coli; label from the status in PepcDB or PDB records
row,Sequence,soluble on expression in E. coli
1,MTMVKTLVALATERMLLKTSGPTFLRGIEFMYAAGLAPDRLSVMMTSSHKYVLQFHSKCDIRPFAANYPNFGRVLRGIVHVREWRIKSIEFVNVAFYMRDVDNLERAIEKLGVELVLLRNCTYPGVQRGDEAVKFLSALNRKKQAVVCEYGDDRLKHRIGRRSSGNRTRRASRNGQEIVNPAIAPGAAAAAQPALEAAPAAPAAGAAAPEANAPQAAPPGIRRPIPLNPDQARHIIPQLLNPGGAQPAPVQDGPVRGPPGIINQGRVVVGAHVYEFRAADVPNADGVPAVHNINHLLNVLNENAGNDVRVIVLPSRVGEGLPIHFNNNDLIFRHQSRPQPAPQQAAAAAAAGAAPAVAVGAEPLPQPDDVQIAPIPADERQARYARVQARLGHMMNARMRQNQEDQQYYYDQQPPNLMVVGTAHAHYRRHMNAQAHQQQREPSWNNYAVANAPPAIIQRNLDAPAPMFGVAVNEPQVQRNGDDSNDSTDREEIYDAEQQRQEALRDLVADPEAQPNFAPVEAQAVDLDMLEEEGEDDEVMEVGGVDGQFMMDGRAVME,not soluble
2,MTNERVMQLIREAYEKNLTTLDLSENQLTQLPSEITELKNLTTLNLSGNQLTQLPSEIGELKSLTSFDLSVNQLTQLPPEIGELKNLTILNVYRNQLIQLLPEITELKNLTTLDLSLNKLTQLPPEIGELEHHHHHH,not soluble
3,MTNHIEYKKNQIIASSEIDDLIFMSAPQEWSLEEQKEIQDKLVREAFHFHYNRNEKYRNYCISQHINENLHSIDEIPVFPTSIFKHMKFHTVSMGDIENWHTSSGTQGIKSCIARDRLSIERLLGSVNFGMKYVGNWFEHQMELVNLGPDRFSASNVWFKYVMSLVELLYPTVFTVNNDKIDFEETVNHLYRINNSNKDICLIGPPFFVSLLCQYMKENNIEFKGENRLHVITGGGWKSNENSSLNRQDFNQLIMDTFQLDNVNQIRDTFNQVELNTCFFEDEFQRKHVPPWVYARALDPETLKPVADGELGLLSYMDASSTAYPAFIVTDDIGIVREIREPDPYPGVTVEIVRRLNTRAQKGCALSMASFIQSTILEHHHHHH,not soluble
4,MTNPQFAGHPFGTTVTAETLRNTFAPLTQWEDKYRQLIMLGKQLPALPDELKAQAKEIAGCENRVWLGYTVAENGKMHFFGDSEGRIVRGLLAVLLTAVEGKTAAELQAQSPLALFDELGLRAQLSASRSQGLNALSEAIIAATKQV,not soluble
5,MTNSIHEMIRASFKCEDMVKCVLGLKSLDIEAYKALLMHGPQTAEKLGEILNRERSTAYRSLQNLIACGIVYRETRSIESGGYYYEYVAIEPQEMKRMVKKNVDEWYNQMNELIEKMDDKVNALVTRLEDDEAKQK,not soluble
6,MTPDQMRDASLLELFRLEAEAQTQVLNAGLMALERSPTQADQLEACMRAAHSLKGAARIVGLDAGVRVAHVMEDCLVEAQDGRLLLQSEHIDALLQGCDLLLRIGTPPAGDAGWAEGAGREEIDGLVLRLEGLVRSGLPLARAELPATTPGLPEAVPEAPPAASAAASDDNDEEPAGQAGGEQAEERRSRVLRVTAERLDRLLDISSKSLVEFQRIKPLADSLQRLRRLQSSASRALDVVRETVQETALDPQAQAMLGEARQLIGECQQMLVQHIADLDEFAWQGGQRAQVLYDAALASRMRPFADVLSGQARMVRDLGRSLGKQVRLLVEGESTQVDRDVLEKLEAPLTHLLRNAVDHGIEAPETRLAAGKPAEGRITIRARHHAGMLVLELSDDGGGIDLQRLRETVLNRQFATAETVAQLSEEELLAFLFLPGFSMREQVTEVSGRGVGLDAVQHMVRQLRGGVRMEQRQGQGALFHVEVPLTLSVVRSLVVEIGEEAYAFPLAHIERMCELEAEEIVQLEGRQHFWYEGRHVGLVSAAQLLQRPESSRTEGAIPVVVVRDRDAVYGVAVERFVGERTLVVMPLDPRLGKVRDVSAGALLDDGSPVLILDVEDLLHSVGKLLSSGRLERIDRSRRQAGGAQRKRILVVDDSLTVRELERKLLLGRGYDVAVAVDGMDGWNALRSEHFDLLITDIDMPRMDGIELVTLVRRDSRLQSLPVMVVSYKDREEDRRRGLDAGADYYLAKASFHDEALLDAVVVLIGEAQG,not soluble
7,MTPGFPLPKPDVLSRPFWDFAQRGVLSLQRCRHCGDVHFPAAPVCPACLSEQQEWVPASGRGTLFSWCEFHKGYWDSVASLLPYRVAVIKLNEGPLLISNLVDVADCAALRADAPVEVVFRPVSADINLPVFRLRHAY,not soluble
8,MTPYAFTDPRKSELYVVEGDSAGGSAKSGRDSMFQAILPLRGKIINVEKARIDRVLKNTEVQAIITALGTGIHDEFDIGKLRYHKIVLMADADVDGQHISTLLLTLLFRFMRPLIENGHVFLAQPPLYKLKWQRSDPEFAYSDRERDGLLEAGLKAGKKINKEDGIQRYKGLGEMDAKELWETTMDPSVRVLRQVTLDDAAAADELFSILMGEDVDARRSFITRNAKDVRFLDVKLAAALEHHHHHH,soluble
9,MTQANLSETLFKPRFKHPETSTLVRRFNHGAQPPVQSALDGKTIPHWYRMINRLMWIWRGIDPREILDVQARIVMSDAERTDDDLYDTVIGYRGGNWIYEWATQAMVWQQKACTEEDPQLSGRHWLHAATLYNIAAYPHLKGDDLAEQAQALSNRAYEEAAQRLPGTMRQMEFTVPGGAPITGFLHMPKGDGPFPTVLMCGGLDAMQTDYYSLYERYFAPRGIAMLTIDMPSVGFSSKWKLTQDSSLLHQHVLKALPNVPWVDHTRVAAFGFRFGANVAVRLAYLESPRLKAVACLGPVVHTLLSDFKCQQQVPEMYLDVLASRLGMHDASDEALRVELNRYSLKVQGLLGRRCPTPMLSGYWKNDPFSPEEDSRLITSSSADGKLLEIPFNPVYRNFDKGLQEITGWIEKRLC,not soluble
10,MTQKEISIIHPRPSSIVAALYTLRDLNVDVAILHGPPGCSFKHARLLEEDGIHVVTTGLDENGFVFGGHDKLVQVINKSIELFNPKILGVVGTCASMIIGEEMHEAVLEANPDIPVIEVEVHAGYHNNTKGVIFALESALDAGIIDHKEFERQEYLEHHHHHH,not soluble
11,MTQKIEQSQRQERVAAWNRRTECDLAAFQNSPKQTYQAEKARDRKLCANLEEAIRRSGLQDGMTVSFHHAFRGGDLTVNMVMDVIAKMGFKNLTLASSSLSDCHAPLVEHIRQGVVTRIYTSGLRGPLAEEISRGLLAEPVQIHSHGGRVHLVQSGELNIDVAFLGVPSCDEFGNANGYTGKACCGSLGYAMVDADNAKQVVMLTEELLPYPHNPASIEQDQVDLIVKVNRVGDAAKIGAGTTRMTTNPRELLIARSAADVIVNSGYFKEGFSMQTGTGGASLAVTRFLEDKMRSRDIRADFALGGITATMVDLHEKGLIRKLLDVQSFDSHAAQSLARNPNHIEISANQYANWGSKGASVDRLDVVVLSALEIDRQFNVNVLTGSDGVLRGASGGHCDTAIASALSIIVAPLVRGRIPTLVDNVLTCITPGSSVDILVTDHGIAVNPARPELAERLQEAGIKVVSIEWLRERARLLTGEPQPIEFTDRVVAVVRYRDGSVIDVVHQVKELEHHHHHH,soluble
12,MTQLCSDVRVSPLPGTAKVGDTYILFEHHGPWSHDILDGGTFDKETSAALKAMGCGFYLIRRHGREGRIERPKKTAYLVFGSAGIAEKLMVDDVTDLLKLDVSGPGKNRQFGAEQEAQPIILVCTHAKRDACCAIKGRPMAQALTEEFPDSPVWECSHTKGHRFAPSMVLMPWGYTWGQLNKPAAFDMYRYAQRGQLFLPGNRGRGIWPMKGQIAEVAVAQQLAQEGETVTLGQLRVESIEEAQAHVADSHTARTWTVFLREEVVAGIVDSCHKPPKTGTAWVADRVKENGALEHHHHHH,soluble
13,MTQPEAVFFDCDGTLVDSEVICSRAYVHMFQEFGITLDLAEIFKRFKGVKLYEIIDTINAEYGVNLQKATLEPIYRAEVARLFDSELEVIPGAQALLDAVSVPMCVVSNGPVSKMQHSLGRTGLLRHFTDRLYSGYDIQRWKPDPALMFHAAEAMQVKAENCILVDDSSAGAQSGIAAGMEVFYFCADPHNQPIDHPKVTTFTDLAELPALWQARGWDITR,not soluble
14,MTQTYNADAIEVLTGLEPVRRRPGMYTDTTRPNHLGQEVIDNSVDEALAGHAKRVDVILHADQSLEVIDDGRGMPVDIHPEEGVPAVELILCRLHAGGKFSNKNYQFSGGLHGVGISVVNALSKRVEVNVRRDGQVYNIAFENGEKVQDLQVVGTCGKRNTGTSVHFWPDETFFDSPRFSVSRLTHVLKAKAVLCPGVEITFKDEINNTEQRWCYQDGLNDYLAEAVNGLPTLPEKPFIGNFAGDTEAVDWALLWLPEGGELLTESYVNLIPTMQGGTHVNGLRQGLLDAMREFCEYRNILPRGVKLSAEDIWDRCAYVLSVKMQDPQFAGQTKERLSSRQCAAFVSGVVKDAFILWLNQNVQAAELLAEMAISSAQRRMRAAKKVVRKK,soluble
15,MTQVPPSASPADLLAVLERIATALERQGAPAVPANSLDGADAFVWHAAESWLEPVCRVNRVDIALLQGIERQRQTLYDNTLRFAHGLPANNALLWGARGTGKSSLVKAVHASVNQALTAKGAAPVALVEIHREDIPTLPRLLRILAASGRPCLLFCDDLSFDGNDSSYKSLKAVLEGGIEGRPDTVIFYATSNRRHLLAREMVENEQSTALHAGEAVEEKVSLSDRFGLWLGFHNVDQPTYFDIVDGYARAYGLDIETEDLHREAREWSMARGSRSGRTAWQFIQDLAGRLGKTLELEHHHHHH,soluble
16,MTQYQALIIGFGKAGKTLAATLAKTGWRVAIIEQSASMFGGTCINIGCIPTKTLVHDAEREGDFSVAMQRKAAVVNFLRDKNFHNLADLDNVDVIEGRAEFIDNHTLRVFQADGERVLRGEKIFINTGAESVIPAITGLTTTAGVFDSTGLLSLSQRPARLGILGGGYIGLEFASMFANFGTKVTIFEAAPQFLPREDRDIAQAITRILQEKGVELILNANVQAVSSKEGAVQVETPEGAHLVDALLVASGRKPATAGLQLQNAGVAVNERGGIIVDDYLRTTADNIWAMGDVTGGLQFTYISLDDFRIVRDGLLGDGKRSTRDRQNVPYSVFMTPPLSRVGLTEEQARASGATVQVVTLPVAAIPRARVMNDTRGVLKAVVDVNTQRIVGVSLLCVDSHEMINIVKTVMDADLPYTVLRDQIFTHPTMSESLNDLFSLIK,not soluble
17,MTRAERKRQHINHALSIGQKRETGLDDITFVHVSLPDLALEQVDISTKIGELSSSSPIFINAMTGGGGKLTYEINKSLARAASQAGIPLAVGSQMSALKDPSERLSYEIVRKENPNGLIFANLGSEATAAQAKEAVEMIGANALQIHLNVIQEIVMPEGDRSFSGALKRIEQICSRVSVPVIVKEVGFGMSKASAGKLYEAGAAAVDIGGYGGTNFSKIENLRRQRQISFFNSWGISTAASLAEIRSEFPASTMIASGGLQDALDVAKAIALGASCTGMAGHFLKALTDSGEEGLLEEIQLILEELKLIMTVLGARTIADLQKAPLVIKGETHHWLTERGVNTSSYSVR,soluble
18,MTRHGKNSTAASVYTYHERRRDAKASGYGTLHARLGADSIKEFHCCSLTLQPCRNPVISPTGYIFDREAILENILAQKKAYAKKLKEYEKQVAEESAAAKIAEGQAETFTKRTQFSAIESTPSRTGAVATPRPEVGSLKRQGGVMSTEIAAKVKAHGEEGVMSNMKGDKSTSLPSFWIPELNPTAVATKLEKPSSKVLCPVSGKPIKLKELLEVKFTPMPGTETAAHRKFLCPVTRDELTNTTRCAYLKKSKSVVKYDVVEKLIKGDGIDPINGEPMSEDDIIELQRGGTGYSATNETKAKLIRPQLELQ,soluble
19,MTRRVLLLSASVLLATAGYAPEPYYNKYGGYHKALDKKHGGYEADQTGYGGHNGMSDYGNEQGAYGHYDGKYGEAGKKSGQEYYAKGDEHGHGDEAHEKGLKKNGDAYGGKKFSYFTSGSGPYGSYQKGYYGSDGYEHDDHKSKYSSHNEDNGFKKGYDGAGAGHDDKYTSYDKEDAGHKKHHDKYDIGKYGAKQGGYAKQGHEEGWKNEAQKNSYGSRENGQEYGHPYY,not soluble
